# Reference: patent publication US20250340630A1 (SICHUAN KELUN BIOTECH BIOPHARMACEUTICAL, published 2025)
# Positions count from the first letter of the chain named.
# B1: chimeric antibody 1E9.2-hz00 (antibody, human IgG1, kappa, V domains shown)
# VH: EVMLVESGGGLVKPGGSLKLSCAASGFSFSNSAMSWVRQTPEKRLEGVATISSGDSYTYYPDSVKGRFTISRDNAKNSLYLQMSSLRSEDTAVYYCARQGYGNALDYWGQGTSVTVSS
# VL: DIVMTQSPSSLTVTAGEKVTMSCKSSQSLLNSGNQKNYLTWYQQKPGQPPKLLIYWSSTRESGVPDRFTGSGSGTDFTLTISSVQAEDLAVYYCQNDYYYPLTFGAGTKLELKR
# notes: Mouse variable regions on human IgG1 / kappa constant regions; expressed in Expi293F; also called 1E9.2 chimeric antibody
# B2: chimeric antibody 6B9.22-hz00 (antibody, human IgG1, kappa, V domains shown)
# VH: QVQLQQSGAELVKPGASVKMSCKAFGYTFTSYPIEWMKQNHGKSLEWIGNFHPYNDDTKYNEKFKGKAKLTVEKSSSTVYLELSRLTSDDSAVYYCARTYYGNSFAYWGQGTLVTVSS
# VL: B1 VL with S57A, T59S, E61D, D66H, V91F, Y99F, L102F
# notes: Mouse variable regions on human IgG1 / kappa constant regions; expressed in Expi293F
# B3: chimeric antibody 9C8.1-hz00 (antibody, human IgG1, kappa, V domains shown)
# VH: QVQLQQSGAELVRPGSSVKISCKASGYAFSNYWMNWVKQRPGQGLEWIGQIYPGDGDTNYNGKFKGKATLTTDKSSSTAYMQLSSLTSEDSAVYFCARLYYGNSFAYWGQGTLVTVSS
# VL: B1 VL with M21V, S57A, E87A, V91I, Y99F, L102F, A106G, L112I
# notes: as for B2
# B4: chimeric antibody 16A9.11-hz00 (antibody, human IgG1, kappa, V domains shown)
# VH: B1 VH with N74T, A97T, L105M
# VL: B1 VL
# notes: as for B2
# B5: chimeric antibody 19H11.6-hz00 (antibody, human IgG1, kappa, V domains shown)
# VH: B1 VH with Y57F, S63T, S85R
# VL: B1 VL with S22T
# notes: as for B2
# B6: humanized antibody 1E9.2-hz12 (antibody, human IgG1, kappa, V domains shown)
# VH: EVQLVESGGGLVKPGGSLRLSCAASGFSFSNSAMSWVRQAPGKGLEWVSTISSGDSYTYYADSVKGRFTISRDNAKNSLYLQMNSLRAEDTAVYYCARQGYGNALDYWGQGTLVTVSS
# VL: DIVMTQSPDSLAVSLGERATINCKSSQSLLQSGNQKNYLTWYQQKPGQPPKLLIYWSSTRESGVPDRFSGSGSGTDFTLTISSLQAEDFAVYYCQNDYYYPLTFGGGTKVEIKR
# notes: Human IgG1 / kappa constant regions
# B7: humanized antibody 1E9.2-hz15 (antibody, human IgG1, kappa, V domains shown)
# VH: B6 VH
# VL: DIVMTQTPLSLPVTPGEPASISCKSSQSLLNSGNQKNYLTWYLQKPGQSPQLLIYWSSTRESGVPDRFSGSGSGTDFTLKISRVEAEDFGVYYCQNDYYYPLTFGGGTKVEIKR
# notes: as for B6
# B8: humanized antibody 1E9.2-hz13 (antibody, human IgG1, kappa, V domains shown)
# VH: B6 VH
# VL: B6 VL with F89V
# notes: as for B6
# B9: humanized antibody 1E9.2-hz14 (antibody, human IgG1, kappa, V domains shown)
# VH: B6 VH
# VL: B6 VL with Q35N
# notes: as for B6
# B10: humanized antibody 1E9.2-hz17 (antibody, human IgG1, kappa, V domains shown)
# VH: B6 VH
# VL: B7 VL with N31Q, Q35G
# notes: as for B6
# B11: humanized antibody 1E9.2-hz41 (antibody, human IgG1, kappa, V domains shown)
# VH: B6 VH with W47G, S49A, A61P
# VL: B6 VL with Q31N
# notes: as for B6
# B12: mouse antibody 6B9.22 (antibody, V domains shown)
# VH: B2 VH
# VL: DIVMTQSPSSLTVTAGEKVTMSCKSSQSLLNSGNQKNYLTWYQQKPGQPPKLLIYWASSRDSGVPHRFTGSGSGTDFTLTISSVQAEDLAFYYCQNDYFYPFTFGAGTKLELK
# notes: Purified from hybridoma
# B13: mouse antibody 19G10.14 (antibody, V domains shown)
# VH: QVQLKESGPGLVAPSQSLSITCTVSGFSFTSYGVHWVRQPPGKGLEWLGVIWAGGSTDYNAALMSRLSIRKDNSKSQVFLKMNSLQIADTAMYYCARDGHGKVGFDVWGAGTTVTVSS
# VL: DIVMTQSPSSLSVSAGEKVTMNCKSSQSLLNSGNQKNYLAWYQQKPGQPPKLLIYGASTRESGVPDRFTGGGSGTDFTLTISSVQAEDLAIYYCQNDHFYPFTFGSGTKLEIK
# notes: Purified from hybridoma
# B14: mouse antibody 9C8.1 (antibody, V domains shown)
# VH: B3 VH
# VL: B12 VL with M21V, S59T, D61E, H66D, E87A, F91I, A106G, L112I
# notes: Purified from hybridoma
# B15: mouse antibody 1E9.2 (antibody, V domains shown)
# VH: B1 VH
# VL: B12 VL with A57S, S59T, D61E, H66D, F91V, F99Y, F102L
# notes: Purified from hybridoma
# B16: mouse antibody 16A9.11 (antibody, V domains shown)
# VH: B1 VH with N74T, A97T, L105M
# VL: B12 VL with A57S, S59T, D61E, H66D, F91V, F99Y, F102L
# notes: Purified from hybridoma
# B17: mouse antibody 19H11.6 (antibody, V domains shown)
# VH: B1 VH with Y57F, S63T, S85R
# VL: B12 VL with S22T, A57S, S59T, D61E, H66D, F91V, F99Y, F102L
# notes: Purified from hybridoma
# B18: humanized antibody 1E9.2-hz21 (antibody, human IgG1, kappa, V domains shown)
# VH: B6 VH with W47G
# VL: B6 VL with Q31N
# notes: as for B6
# B19: humanized antibody 1E9.2-hz31 (antibody, human IgG1, kappa, V domains shown)
# VH: B6 VH with W47G, S49A
# VL: B6 VL with Q31N
# notes: as for B6
# Target: T1, human Claudin18.2 (human, UniProt P56856-2 1-261)
# T1 construct: whole, on cells; Four-transmembrane protein, always presented on cells (transfected lines or NUGC-4 with endogenous expression); also called CLDN18.2
# Experiment: flow cytometry on Ba/F3-Claudin18.2 cells, chimeric antibody
# Description: The affinity of the anti-Claudin18.2 chimeric antibodies to Ba/F3-Claudin18.2 cells were determined. […] The cells were then analyzed by FACS.
Binder,EC50 [nM],Max MFI [MFI]
B1,11,1.18e+07
B2,18.2,1.67e+07
B3,23.9,1.44e+07
B4,10.5,1.24e+07
B5,11.6,1.3e+07

# Target: T1, human Claudin18.2
# Experiment: cell-based or functional assay
Binder,"ADCC EC50, Ba/F3-Claudin18.2 target cells, NK-92MI_mCD16 effectors [µg/mL]","ADCC Max killing rate %, Ba/F3-Claudin18.2 target cells [%]"
B6,0.091,64.4
B7,0.08,66.2
B8,0.068,63.8
B9,0.097,60.5
B10,0.113,59.6
B11,0.048,55.4
B1,0.049,59.8

# Target: T1, human Claudin18.2
# Experiment: flow cytometry on Ba/F3-Claudin18.2 cells, purified mouse antibody
# Description: (§1) The affinity of the candidates to Claudin18.2 was measured using FACS. […] Ba/F3-Claudin18.1 and Ba/F3-Claudin18.2 cells were incubated with the purified mouse antibodies at various concentrations on ice for 30 min and mouse IgG was used as negative control (Thermo Fisher, Cat: 31903), followed by washing with FACS buffer (PBS+2% FBS) twice.
Binder,EC50 [nM],Max MFI [MFI]
B12,3.64,3.62e+06
B13,16.3,3.5e+06
B14,9.4,4.97e+06
B15,8.51,5.08e+06
B16,10.2,5.82e+06
B17,10.9,6.01e+06

# Target: T2, human Claudin18.1 (human, UniProt P56856 1-261)
# T2 construct: whole, on cells; Presented on transfected cells; also called CLDN18.1
# Experiment: FACS titration on Ba/F3-Claudin 18.1 cells
# Description: as §1
row,Binder,binding result
1,B12,no binding (tested: about 50 nM)
2,B13,no binding (tested: about 50 nM)
3,B14,no binding (tested: about 50 nM)
4,B15,no binding (tested: about 50 nM)
5,B16,no binding (tested: about 50 nM)
6,B17,no binding (tested: about 50 nM)

# Target: T1, human Claudin18.2
# Experiment: flow cytometry (IntelliCyt) on Ba/F3-Claudin18.2 cells
# Description: In order to evaluate the anti-Claudin18.2 humanized antibodies, codon optimized cDNAs of the heavy chains and the light chains of the candidate humanized antibodies from Example 6 were synthesized and ligated into pcDNA3.4 (by Nanjing Genscript Biotech Corporation). Expi293F cells (purchased from Thermo Incorporation) were co-transfected with pcDNA3.4 coding the heavy chain and light chain of each antibody. The antibodies were purified from the supernatant using protein A (MabSelect SuRe, GE). The affinity of the humanized antibodies to Claudin18.2 was determined using Ba/F3-Claudin18.2 cells which over-expressed human Claudin18.2. Ba/F3-Claudin18.2 cells (60000 in 10 ul buffer) were incubated with purified humanized antibodies on ice for 30 min, followed by washing with buffer (PBS+2% FBS) twice and addition of Alexa647-labeled goat-anti-human IgG Fc antibody (1:500 dilution). The cells were incubated on ice for another 30 min and analyzed by IntelliCyt.
row,Binder,Max MFI [MFI]
1,B7,8.99e+06
2,B18,1.46e+07
3,B19,1.06e+07
4,B10,5.9e+06
5,B11,1.13e+07
6,B1,1.12e+07
